Assay results: the supplement of paper PMC11865577

Experiments:
Assay in all cases: pull-down binding Z-score (relative to library population); higher = stronger binding
[1] = test system: G-clamp-N3 (biotin conjugate); settings: RNA library: Library-1 (pre-miRNA loops + repeats)
How it was run: (§1)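 Binding is given as a Z-score against the library mean and standard deviation, calculated after removing the beads-only signal and averaging barcoded replicate probes without their highest and lowest values. Cy5- or Cy3-end-labelled RNA library (1 μg) was heat-folded in phosphate/NaCl/KCl buffer and incubated 60 min at 25 °C with streptavidin beads bearing 100 pmol of biotin-conjugated small molecule. After three washes, RNA eluted in hot SDS was hybridised to a DNA barcode microarray for 20 h at 55.5 °C.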

[2] = test system: TO-3-N3 (biotin conjugate); settings: RNA library: Library-2
How it was run: as §1

[3] = test system: TO-3-N3-2 (biotin conjugate); settings: RNA library: Library-2
How it was run: as §1

TO-N3 (biotin conjugate) = settings: RNA library: Library-2
How it was run: as §1

[4] = test system: TO-N3-2 (biotin conjugate); settings: RNA library: Library-2
How it was run: as §1

Sequence	pull-down binding Z-score [1]	pull-down binding Z-score [2]	pull-down binding Z-score [3]	pull-down binding Z-score (TO-N3 (biotin conjugate))	pull-down binding Z-score [4]
UGAGUACAUUAUUUAUGAUUAAUCA [hsa-mir-376a-1]	-1.62	-0.874	-0.0505	-0.978	-0.847
UGAGUGAUGACUCAGGCGACUCCA [hsa-mir-338]	1.31	-0.345	-0.0635	0.461	1.51
UGAGUGCCGACUGGCGCCUG [hsa-mir-4750]	-0.352	-0.164	-0.448	0.0638	0.446
UGAGUGCUAUUUCAGUGCAACA [hsa-mir-362]	-0.0128	0.967	0.108	0.821	0.0784
UGAGUGGCAUAAUCAGAGUACAAUUUGAGUCAUGCCCAUACAUCA [hsa-mir-23c]	-1.1	-0.338	0.0374	-0.271	0.0219
UGAGUUUA [hsa-mir-451a]	-1.09	-0.287	-0.207	-0.22	-0.372
UGAUCAUUAUAUGUAUGAUGAGAUCAU [hsa-mir-4528]	1.33	-0.532	-0.131	-0.54	-0.0235
UGAUUUGUGACUUAAGAUUAAAAUCA [hsa-mir-23b]	-0.478	-0.415	0.0381	-0.499	-0.649
UGCAAAUGCAAAGUUGGCUUUUGCA [hsa-mir-3680-2_3680-1]	1.8	-0.669	-0.253	-0.954	-0.878
UGCACCACUCUCCCUGUGAUGAGGUGAA [hsa-mir-4786]	-0.896	-0.535	-0.354	-0.255	0.456
UGCACCAGUUCUGGCCGCUGGUGGA [hsa-mir-4683]	-0.459	-0.16	-0.295	0.104	0.856
UGCAGAUGUGGACUGCUAAAUGCA [hsa-mir-1253]	-0.572	-0.411	-0.171	-0.275	0.384
UGCAGUAUCCGCUGUUGCUGCU [hsa-mir-6132]	-1.39	-0.329	-0.341	-0.105	0.672
UGCAGUGAGCAACCUACACAACUGCA [hsa-mir-5589]	-0.716	-0.0632	-0.317	-0.0697	-0.188
UGCAGUGCUGGGCAUGGGCUUCUCG [hsa-mir-3677]	0.689	1.07	0.328	1.49	1.54
UGCAGUUAGUGAAGCAGCUUAGAAUCUACUGCC [hsa-mir-18b]	0.0114	0.192	0.625	0.989	1.47
UGCAGUUCUGUUGGGUGACAGCA [hsa-mir-6499]	-0.982	0.239	-0.0248	0.342	0.485
UGCAUAAAUGAAGCUGAAUGA [hsa-mir-6134]	-0.213	-0.352	0.378	-0.0557	0.629
UGCCACCCAGCCCUGCAGAGCCCCUGACUC [hsa-mir-6814]	-1.17	0.562	0.422	1.16	1.44
UGCCAUACUUUUAACGGCA [hsa-mir-548i-4]	-0.464	-0.727	-0.272	-1.09	-1.06
UGCCAUUAAAAGUAAUGGCA [hsa-mir-548i-3_548i-2_548i-1]	1.22	0.489	-0.048	0.141	-0.409
UGCCAUUACUCUCAGUGGCA [hsa-mir-548y]	-0.0483	-0.836	-0.564	-1.16	-1.01
UGCCCUAGCGGCU [hsa-mir-4268]	-0.151	-0.212	-0.708	-0.211	-0.238
UGCCCUGGGGCCGUCCCUGCGCA [hsa-mir-1909]	-1.26	0.425	0.143	0.883	1.63
UGCCUACUACUGAUGACAUACAAUGUAAGUGCUCAUUUAGGCG [hsa-mir-5696]	-0.861	-0.702	-0.289	-0.71	-0.201

Sequence	pull-down binding Z-score [1]	pull-down binding Z-score [2]	pull-down binding Z-score [3]	pull-down binding Z-score (TO-N3 (biotin conjugate))	pull-down binding Z-score [4]
UGCCUCUCGGGGU [hsa-mir-6073]	-0.532	0.000863	0.15	0.118	0.214
UGCCUUGUAGCAUUCAGGUCAAGCA [hsa-mir-103a-2]	0.0735	-0.594	-0.378	-0.524	0.0485
UGCGUUAGGAUUUCUGUAUCAUCCUCCUAACGCA [hsa-mir-3166]	0.901	0.576	0.141	0.306	-0.758
UGCUAUUACUUGUAUUUAUUUGUAAUGCA [hsa-mir-548ab]	-0.547	-0.524	-0.88	-1.33	-1.59
UGCUAUUAGAAAGUAAUGGCA [hsa-mir-548ba]	0.465	0.757	0.507	0.776	-0.00903
UGCUCAGUGGAGUUAUUUUGAGCA [hsa-mir-4495]	1.2	-1.01	-0.621	-1.42	-1.2
UGCUCCUUGAACAGGAGGAGCA [hsa-mir-4708]	1.09	-0.48	-0.405	-0.683	-0.535
UGCUCUGAUGAAGACCCAUGUGGC [hsa-mir-621]	-0.6	-0.162	0.285	0.589	1.51
UGCUCUGGUGACUGAGGACCGCCAGGCA [hsa-mir-4763]	-0.385	-0.245	-0.197	-0.091	0.367
UGCUGAUGUCAUCAGUCAUAACUUCUGCG [hsa-mir-6854]	-0.983	-0.119	0.131	-0.0155	0.366
UGCUGGAGAAGUGUUU [hsa-mir-557]	-0.431	0.516	0.0975	0.49	0.156
UGCUGGUGCUAGAGAGGAAAGCA [hsa-mir-4748]	1	0.426	0.315	0.985	2.22
UGCUGUGAGCUAGCCAGCAG [hsa-mir-5693]	-0.44	-0.0213	0.0593	0.614	0.91
UGCUGUGCUGUGCUGAGCAGGGCUGAGCUG [hsa-mir-4539]	0.347	0.29	0.178	1.07	1.46
UGCUGUUGCUGUGAAAGCUGA [hsa-mir-6823]	-0.619	0.045	0.304	0.559	0.705
UGCUGUUGGAGACUCGAUUGUUGGUGACAGCGAAAGAACGAUAACAAA [hsa-mir-3655]	-1.76	-0.405	-0.149	0.231	1.04
UGCUUCAGUUUCACUCCAAGCA [hsa-mir-4771-2_4771-1]	-0.932	-0.0351	-0.126	-0.204	-0.141
UGCUUCCACAUAGCAGCA [hsa-mir-4752]	-0.248	-0.423	-0.24	-0.62	-0.597
UGCUUGACCUGAAUGCUACAAGGCA [hsa-mir-103b-2]	-1.12	-0.324	-0.122	-0.303	-0.0962
UGCUUGAUCCAUAUGCAACAAGGCA [hsa-mir-103b-1]	-0.604	0.453	0.244	0.57	0.715
UGCUUUACUUUUAAUGGCA [hsa-mir-548k]	-0.352	-0.819	-0.358	-1.15	-1.34
UGCUUUGUUAGAAACAAAAAGCA [hsa-mir-4679-1]	0.865	0.632	0.248	0.447	-0.462
UGCUUUUUGUUUCUAACAAAGCA [hsa-mir-4679-2]	-0.591	0.272	-0.407	0.0252	-1.25
UGGAAGCUCCAGGUGCCAACCACCUGCCUCUA [hsa-mir-6731]	-0.826	0.00854	-0.134	0.231	0.456
UGGAAGGAAUGGGAUCUACUUCCA [hsa-mir-3612]	0.981	0.389	0.46	0.285	-0.214

Sequence	pull-down binding Z-score [1]	pull-down binding Z-score [2]	pull-down binding Z-score [3]	pull-down binding Z-score (TO-N3 (biotin conjugate))	pull-down binding Z-score [4]
UGGACAGAAAUUUCCUUUUGAGGAAAUCUUUCCC [hsa-mir-4308]	-0.543	-0.486	-0.309	-0.671	-0.367
UGGACCUCAGGGAAGAGGCUG [hsa-mir-4673]	0.343	-0.608	-0.191	-0.619	-0.855
UGGACUGUGUACCAAUUUCCA [hsa-mir-194-1]	0.055	-0.134	-0.379	-0.21	-0.471
UGGAGCCAGGGGGCCCAGGUCUACAGCUUCUCCCCGCUCCC [hsa-mir-6752]	-0.438	-0.138	-0.105	0.328	1.2
UGGAGCUAGACCACAUGGGUUCA [hsa-mir-5100]	-0.932	-0.111	-0.115	-0.131	0.244
UGGAGGAGUCUGGUGGCCUGUUCUCUU [hsa-mir-6754]	-0.0952	-0.348	-0.0949	0.123	0.707
UGGAGGCUGACCUCUUACUUUCGGUCGGUCUUCUU [hsa-mir-4258]	-1.13	-0.176	-0.43	-0.486	-0.435
UGGAGGCUGCAGUGAGCCGAGAUCGAGCCACUGUACUCCA [hsa-mir-1273e]	0.0244	0.259	-0.0556	1.14	1.09
UGGAGGGGGUUUGUUUGCUUAUUCCCCUCU [hsa-mir-6737]	0.456	0.936	0.705	0.918	0.633
UGGAGGUGAUGGAUGUUUUCCUCCG [hsa-mir-671]	-0.238	-0.607	-0.398	-0.717	-0.359
UGGAGGUGAUGGGGGCAGGGGAUGGGUCUCACCCUCCC [hsa-mir-5088]	0.537	3.33	2.93	3.11	2.59
UGGAGUCAGUAUUGGUCUGGCCA [hsa-mir-4255]	0.114	-0.417	0.104	-0.319	0.502
UGGAGUUUUUUUUUCCUCCUG [hsa-mir-4329]	-0.689	0.315	0.465	0.219	0.0619
UGGAUCACGCCGACAACACUGGUCU [hsa-mir-4635]	-0.474	0.534	0.163	0.823	0.76
UGGAUUUGAAAUGGUCCCACUCCUGACGAUCCU [hsa-mir-6748]	-0.524	-0.358	-0.155	-0.0778	0.335
UGGCAAAGACAUAGAUUGUUUAGCUACCCCUUUGCCA [hsa-mir-3119-2]	0.167	-0.516	-0.495	-0.809	-0.58
UGGCAAAGGGGUAGCUAAACAAUCUAUGUCUUUGCCA [hsa-mir-3119-1]	1.24	-0.367	0.00332	-0.525	-0.555
UGGCAAUUCAGUAAAAAUGCUCA [hsa-mir-6715b]	-0.751	-0.296	-0.14	-0.281	0.143
UGGCACAGAUCCAAUACCUUCUGUCCCC [hsa-mir-6810]	-0.424	0.0686	-0.361	-0.118	0.171
UGGCCAUUUCCUACCA [hsa-mir-617]	-1.33	-0.72	-0.393	-0.908	-0.383
UGGCCUGGCAGUGCGUCGGAAGAACAGGGCGGGUGGGGCC [hsa-mir-4792]	2.84	4	3.11	3.93	3.57
UGGCGACACUCGCGCCAGCUCCCGGGACGGCUGGGCUCGGGCUGGUCGCCGA [hsa-mir-7845]	3.14	0.0309	-0.167	0.341	1.38
UGGCGGCGGCGAGGACACCGCCGCU [hsa-mir-4469]	0.412	1.53	0.747	1.4	0.629
UGGCUGCUUGGGUCAAGUCAGCAGCCA [hsa-mir-449b]	1.35	-0.201	-0.474	-0.272	-0.648
